B1: GLS3000 S52D one-arm antibody (H chain CE115HA000) (antibody, human IgG1, kappa, L234A L235A, N297A, name in Kabat numbering)
heavy: QVQLVESGGGVVQPGRSLRLSCAASGFTFSNAWMHWVRQAPGKGLEWVAQIKAKSNNYATYYAESVKGRFTISRDDSKNSLYLQMNSLKTEDTAVYYCRYVHYGAYYGVDAWGQGTTVTVSSASTKGPSVFPLAPSSKSTSGGTAALGCLVKDYFPEPVTVSWNSGALTSGVHTFPAVLQSSGLYSLSSVVTVPSSSLGTQTYICNVNHKPSNTKVDKKVEPKSCDKTHTCPPCPAPEAAGGPSVFLFPPKPKDTLMISRTPEVTCVVVDVSHEDPEVKFNWYVDGVEVHNAKTKPREEQYASTYRVVSVLTVLHQDWLNGKEYKCKVSNKALPAPIEKTISKAKGQPREPQVYTLPPSRCELTKNQVSLSCAVKGFYPSDIAVEWESNGQPENNYKTTPPVLDSDGSFFLVSKLTVDKSRWQQGNVFSCSVMHEALHNHYTQKSLSLSPDYKDDDDK
chain: EPKSSDKTHTCPPCPAPELLGGPSVFLFPPKPKDTLMISRTPEVTCVVVDVSHEDPEVKFNWYVDGVEVHNAKTKPREEQYNSTYRVVSVLTVLHQDWLNGKEYKCKVSNKALPAPIEKTISKAKGQPREPQVCTLPPSRDELTKNQVSLWCLVKGFYPSDIAVEWESNGQPENNYKTTPPVLDSDGSFFLYSKLTVDKSRWQQGNVFSCSVMHEALHNRYTQKSLSLSP
light: DIVMTQSPLSLPVTPGEPASISCRSSQSLVHSNRNTYLHWYQQKPGQAPRLLIYKVDNRFSGVPDRFSGSGSGTDFTLKISRVEAEDVGVYYCGQGTQVPYTFGQGTKLEIKRTVAAPSVFIFPPSDEQLKSGTASVVCLLNNFYPREAKVQWKVDNALQSGNSQESVTEQDSKDSTYSLSSTLTLSKADYEKHKVYACEVTHQGLSSPVTKSFNRGEC
notes: one-arm antibody
B2: GLS3000 T31D one-arm antibody (H chain CE115HA000) (antibody, human IgG1, kappa, L234A L235A, N297A, name in Kabat numbering)
heavy: QVQLVESGGGVVQPGRSLRLSCAASGFTFSNAWMHWVRQAPGKGLEWVAQIKAKSNNYATYYAESVKGRFTISRDDSKNSLYLQMNSLKTEDTAVYYCRYVHYGAYYGVDAWGQGTTVTVSSASTKGPSVFPLAPSSKSTSGGTAALGCLVKDYFPEPVTVSWNSGALTSGVHTFPAVLQSSGLYSLSSVVTVPSSSLGTQTYICNVNHKPSNTKVDKKVEPKSCDKTHTCPPCPAPEAAGGPSVFLFPPKPKDTLMISRTPEVTCVVVDVSHEDPEVKFNWYVDGVEVHNAKTKPREEQYASTYRVVSVLTVLHQDWLNGKEYKCKVSNKALPAPIEKTISKAKGQPREPQVYTLPPSRCELTKNQVSLSCAVKGFYPSDIAVEWESNGQPENNYKTTPPVLDSDGSFFLVSKLTVDKSRWQQGNVFSCSVMHEALHNHYTQKSLSLSPDYKDDDDK
chain: EPKSSDKTHTCPPCPAPELLGGPSVFLFPPKPKDTLMISRTPEVTCVVVDVSHEDPEVKFNWYVDGVEVHNAKTKPREEQYNSTYRVVSVLTVLHQDWLNGKEYKCKVSNKALPAPIEKTISKAKGQPREPQVCTLPPSRDELTKNQVSLWCLVKGFYPSDIAVEWESNGQPENNYKTTPPVLDSDGSFFLYSKLTVDKSRWQQGNVFSCSVMHEALHNRYTQKSLSLSP
light: DIVMTQSPLSLPVTPGEPASISCRSSQSLVHSNRNDYLHWYQQKPGQAPRLLIYKVSNRFSGVPDRFSGSGSGTDFTLKISRVEAEDVGVYYCGQGTQVPYTFGQGTKLEIKRTVAAPSVFIFPPSDEQLKSGTASVVCLLNNFYPREAKVQWKVDNALQSGNSQESVTEQDSKDSTYSLSSTLTLSKADYEKHKVYACEVTHQGLSSPVTKSFNRGEC
notes: one-arm antibody
B3: GLS3000 S56D one-arm antibody (H chain CE115HA000) (antibody, human IgG1, kappa, L234A L235A, N297A, name in Kabat numbering)
heavy: QVQLVESGGGVVQPGRSLRLSCAASGFTFSNAWMHWVRQAPGKGLEWVAQIKAKSNNYATYYAESVKGRFTISRDDSKNSLYLQMNSLKTEDTAVYYCRYVHYGAYYGVDAWGQGTTVTVSSASTKGPSVFPLAPSSKSTSGGTAALGCLVKDYFPEPVTVSWNSGALTSGVHTFPAVLQSSGLYSLSSVVTVPSSSLGTQTYICNVNHKPSNTKVDKKVEPKSCDKTHTCPPCPAPEAAGGPSVFLFPPKPKDTLMISRTPEVTCVVVDVSHEDPEVKFNWYVDGVEVHNAKTKPREEQYASTYRVVSVLTVLHQDWLNGKEYKCKVSNKALPAPIEKTISKAKGQPREPQVYTLPPSRCELTKNQVSLSCAVKGFYPSDIAVEWESNGQPENNYKTTPPVLDSDGSFFLVSKLTVDKSRWQQGNVFSCSVMHEALHNHYTQKSLSLSPDYKDDDDK
chain: EPKSSDKTHTCPPCPAPELLGGPSVFLFPPKPKDTLMISRTPEVTCVVVDVSHEDPEVKFNWYVDGVEVHNAKTKPREEQYNSTYRVVSVLTVLHQDWLNGKEYKCKVSNKALPAPIEKTISKAKGQPREPQVCTLPPSRDELTKNQVSLWCLVKGFYPSDIAVEWESNGQPENNYKTTPPVLDSDGSFFLYSKLTVDKSRWQQGNVFSCSVMHEALHNRYTQKSLSLSP
light: DIVMTQSPLSLPVTPGEPASISCRSSQSLVHSNRNTYLHWYQQKPGQAPRLLIYKVSNRFDGVPDRFSGSGSGTDFTLKISRVEAEDVGVYYCGQGTQVPYTFGQGTKLEIKRTVAAPSVFIFPPSDEQLKSGTASVVCLLNNFYPREAKVQWKVDNALQSGNSQESVTEQDSKDSTYSLSSTLTLSKADYEKHKVYACEVTHQGLSSPVTKSFNRGEC
notes: one-arm antibody
B4: GLS3000 S56A one-arm antibody (H chain CE115HA000) (antibody, human IgG1, kappa, L234A L235A, N297A, name in Kabat numbering)
heavy: QVQLVESGGGVVQPGRSLRLSCAASGFTFSNAWMHWVRQAPGKGLEWVAQIKAKSNNYATYYAESVKGRFTISRDDSKNSLYLQMNSLKTEDTAVYYCRYVHYGAYYGVDAWGQGTTVTVSSASTKGPSVFPLAPSSKSTSGGTAALGCLVKDYFPEPVTVSWNSGALTSGVHTFPAVLQSSGLYSLSSVVTVPSSSLGTQTYICNVNHKPSNTKVDKKVEPKSCDKTHTCPPCPAPEAAGGPSVFLFPPKPKDTLMISRTPEVTCVVVDVSHEDPEVKFNWYVDGVEVHNAKTKPREEQYASTYRVVSVLTVLHQDWLNGKEYKCKVSNKALPAPIEKTISKAKGQPREPQVYTLPPSRCELTKNQVSLSCAVKGFYPSDIAVEWESNGQPENNYKTTPPVLDSDGSFFLVSKLTVDKSRWQQGNVFSCSVMHEALHNHYTQKSLSLSPDYKDDDDK
chain: EPKSSDKTHTCPPCPAPELLGGPSVFLFPPKPKDTLMISRTPEVTCVVVDVSHEDPEVKFNWYVDGVEVHNAKTKPREEQYNSTYRVVSVLTVLHQDWLNGKEYKCKVSNKALPAPIEKTISKAKGQPREPQVCTLPPSRDELTKNQVSLWCLVKGFYPSDIAVEWESNGQPENNYKTTPPVLDSDGSFFLYSKLTVDKSRWQQGNVFSCSVMHEALHNRYTQKSLSLSP
light: DIVMTQSPLSLPVTPGEPASISCRSSQSLVHSNRNTYLHWYQQKPGQAPRLLIYKVSNRFAGVPDRFSGSGSGTDFTLKISRVEAEDVGVYYCGQGTQVPYTFGQGTKLEIKRTVAAPSVFIFPPSDEQLKSGTASVVCLLNNFYPREAKVQWKVDNALQSGNSQESVTEQDSKDSTYSLSSTLTLSKADYEKHKVYACEVTHQGLSSPVTKSFNRGEC
notes: one-arm antibody

These binders were tested against T1, CD3 epsilon homodimer protein (UniProt P07766 23-126) (assay: SPR, CD3e homodimer on chip;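 also: surface plasmon resonance at 25 degrees C, antibodies flowed as analyte over CD3 epsilon homodimer amine-coupled to a CM4 chip, running buffer HBS-EP+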).
T1 construct: also called CD3 (CD3 epsilon)
T1 sequence (P07766 23-126): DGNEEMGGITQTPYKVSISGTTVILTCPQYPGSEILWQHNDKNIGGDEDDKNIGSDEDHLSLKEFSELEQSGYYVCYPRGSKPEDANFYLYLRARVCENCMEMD
B1 was tested, and the “ratio of amounts bound (altered form / unaltered GLS3000 antibody)” value was 0.63.
In the case of B2, the “ratio of amounts bound (altered form / unaltered GLS3000 antibody)” value is reported as 0.23.
In the case of B3, the “ratio of amounts bound (altered form / unaltered GLS3000 antibody)” value is reported as 0.77.
With B4 the “ratio of amounts bound (altered form / unaltered GLS3000 antibody)” value was 1.16.

Source: patent publication US20240270846A1 (published 2024)
